Test results: patent US20030145347

Tests used:
[1] = biological target: rice thioredoxin with S-tag (recombinant, expressed in E. coli from pNOV4113)
[2] = biological target: soybean thioredoxin prep without S-tag (recombinant, expressed in E. coli from pNOV4112, S-Tag removed by thrombin cleavage)
[3] = biological target: soybean thioredoxin with S-tag (recombinant, expressed in E. coli from pNOV4112)
[4] = biological target: wheat thioredoxin with S-tag (recombinant, expressed in E. coli from pNOV4114)

B1: E. coli thioredoxin reductase (T-7915, Sigma, St. Louis, Mo.) (protein)
chain: GTTKHSKLLILGSGPAGYTAAVYAARANLQPVLITGMEKGGQLTTTTEVENWPGDPNDLTGPLLMERMHEHATKFETEIIFDHINKVDLQNRPFRLNGDNGEYTCDALIIATGASARYLGLPSEEAFKGRGVSACATCDGFFYRNQKVAVIGGGNTAVEEALYLSNIASEVHLIHRRDGFRAEKILIKRLMDKVENGNIILHTNRTLEEVTGDQMGVTGVRLRDTQNSDNIESLDVAGLFVAIGHSPNTAIFEGQLELENGYIKVQSGIHGNATQTSIPGVFAAGDVMDHIYRQAITSAGTGCMAALDAERYLDGLADAK
[1]
  reduction of thioredoxin, DTNB assay: can also reduce rice thioredoxin
[2]
  reduction of thioredoxin, DTNB assay: can reduce soybean thioredoxin with and without the S-tag
[3]
  reduction of thioredoxin, DTNB assay: can reduce soybean thioredoxin with and without the S-tag
[4]
  reduction of thioredoxin, DTNB assay: Wheat thioredoxin can be reduced by E. coli thioredoxin reductase
